# Measured values taken from US11965039B2, “Compstatin analogues and their medical uses” (priority 2018, dated 2024).
# Read-outs that look alike come from different tables or passages of the source. Positions of bridges follow the written chain, without caps; N, C: chain ends. Non-standard residues stand in square brackets, D forms with d. Trp(1-Me) = Cn1cc(C[C@H](N)C(=O)O)c2ccccc21; NMeI = CC[C@H](C)[C@H](NC)C(=O)O; Sar = CNCC(=O)O
# Legend:
# [1] = molecular target: T1, Human C3 (Complement tech cat #A113c) (human, UniProt P01024 23-1663); experiment: cell-based or functional assay
# [2] = molecular target: T1, Human C3 (Complement tech cat #A113c); experiment: SPR (Biacore T200), human C3 immobilised, peptide injected, 1:1 fit
# In short: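 Human C3 amine-coupled on CM5 chips to about 3000 RU. Multi-cycle runs on Biacore T200 at 25° C: peptides at 6-8 rising concentrations, 60-120 s at 30 µL/min in 10 mM Tris pH 7.4, 150 mM NaCl, 0.05% Tween20, dissociation up to 10 min; 3 M MgCl2 regeneration. Kd derived.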
# [3] = molecular target: T1, Human C3 (Complement tech cat #A113c); experiment: cell-based or functional assay; remark: listed apart in the source
# [4] = molecular target: T1, Human C3 (Complement tech cat #A113c); experiment: SPR (Biacore T200), human C3 immobilised, peptide injected, 1:1 fit; remark: listed apart in the source
# Protocol: Surface plasmon resonance (SPR) was used to characterize peptides with respect to their binding affinity (Kd) for C3. Human C3 (Complement tech cat #A113c) was immobilised on individual flow cells of CM5 sensor chips (GE Healthcare) using standard amine coupling to a density of approximately 3000 resonance units (RU) in a buffer consisting of 10 mM phosphate pH 7.4, 150 mM NaCl, 0.05% Tween20.
# For interaction experiments a multi-cycle experiment approach was used and performed using a BiacoreT200™ instrument (GE Healthcare) at 25° C. Peptides were injected in increasing concentration series (6-8 different concentrations) for 60-120 sat a flow rate of 30 µL/min in a buffer consisting of 10 mM Tris buffer at pH 7.4, with 150 mM NaCl and 0.05% Tween20. This was followed by a dissociation period for up to 10 min. The C3 surface was regenerated between runs by a 45 s injection of 3 M MgCl_2.
# T1 sequence (P01024 23-1663 limits assumed): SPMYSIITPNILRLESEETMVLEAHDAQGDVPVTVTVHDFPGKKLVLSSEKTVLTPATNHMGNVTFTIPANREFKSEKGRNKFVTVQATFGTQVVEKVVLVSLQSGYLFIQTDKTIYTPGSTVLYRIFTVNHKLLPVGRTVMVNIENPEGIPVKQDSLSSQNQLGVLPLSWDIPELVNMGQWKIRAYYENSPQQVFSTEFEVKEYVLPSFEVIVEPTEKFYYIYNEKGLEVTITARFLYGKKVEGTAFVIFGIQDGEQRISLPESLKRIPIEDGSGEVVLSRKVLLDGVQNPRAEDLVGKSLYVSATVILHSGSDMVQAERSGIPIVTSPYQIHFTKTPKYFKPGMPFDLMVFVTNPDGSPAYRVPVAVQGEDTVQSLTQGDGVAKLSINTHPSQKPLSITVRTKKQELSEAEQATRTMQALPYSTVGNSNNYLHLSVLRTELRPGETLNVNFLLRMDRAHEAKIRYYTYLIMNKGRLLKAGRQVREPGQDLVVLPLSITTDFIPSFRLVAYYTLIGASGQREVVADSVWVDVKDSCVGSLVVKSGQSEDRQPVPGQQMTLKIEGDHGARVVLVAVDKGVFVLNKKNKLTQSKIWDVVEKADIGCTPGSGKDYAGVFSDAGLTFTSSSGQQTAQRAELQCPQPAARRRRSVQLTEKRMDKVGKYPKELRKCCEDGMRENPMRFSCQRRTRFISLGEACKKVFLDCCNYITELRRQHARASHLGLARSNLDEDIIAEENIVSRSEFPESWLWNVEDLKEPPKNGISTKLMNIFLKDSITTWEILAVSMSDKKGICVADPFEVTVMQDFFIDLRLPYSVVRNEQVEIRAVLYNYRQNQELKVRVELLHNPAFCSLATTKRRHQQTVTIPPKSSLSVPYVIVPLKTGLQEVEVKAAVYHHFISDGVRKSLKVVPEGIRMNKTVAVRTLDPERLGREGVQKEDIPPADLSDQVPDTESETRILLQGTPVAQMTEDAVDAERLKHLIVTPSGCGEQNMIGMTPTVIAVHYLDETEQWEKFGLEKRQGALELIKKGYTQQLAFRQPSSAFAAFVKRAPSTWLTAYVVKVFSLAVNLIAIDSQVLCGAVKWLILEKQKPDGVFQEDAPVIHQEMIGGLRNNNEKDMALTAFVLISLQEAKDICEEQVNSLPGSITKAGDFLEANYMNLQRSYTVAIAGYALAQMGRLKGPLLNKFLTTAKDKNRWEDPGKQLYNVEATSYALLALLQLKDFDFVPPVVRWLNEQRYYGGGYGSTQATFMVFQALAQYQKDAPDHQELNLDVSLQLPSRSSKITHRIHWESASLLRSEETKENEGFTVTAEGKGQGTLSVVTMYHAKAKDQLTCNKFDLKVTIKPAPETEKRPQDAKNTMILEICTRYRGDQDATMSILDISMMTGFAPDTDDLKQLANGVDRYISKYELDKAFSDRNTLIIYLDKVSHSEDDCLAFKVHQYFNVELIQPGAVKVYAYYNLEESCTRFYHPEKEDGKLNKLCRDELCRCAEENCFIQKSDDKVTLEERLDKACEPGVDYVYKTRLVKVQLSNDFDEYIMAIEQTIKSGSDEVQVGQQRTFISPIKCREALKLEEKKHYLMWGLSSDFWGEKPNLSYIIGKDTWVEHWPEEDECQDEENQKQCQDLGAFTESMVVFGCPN
Kd [2] [nM],Kd [4] [nM],Binder,CP hemolysis IC50 [1] [nM],inhibition of hemolysis IC50 [3] [nM]
,,Ac-ESSAICVWQDWGEHRCT-NH2 (disulfide 6-16; SMILES CC[C@H](C)[C@H](NC(=O)[C@H](C)NC(=O)[C@H](CO)NC(=O)[C@H](CO)NC(=O)[C@H](CCC(=O)O)NC(C)=O)C(=O)N[C@H]1CSSC[C@@H](C(=O)N[C@H](C(N)=O)[C@@H](C)O)NC(=O)[C@H](CCCNC(=N)N)NC(=O)[C@H](Cc2c[nH]cn2)NC(=O)[C@H](CCC(=O)O)NC(=O)CNC(=O)[C@H](Cc2c[nH]c3ccccc23)NC(=O)[C@H](CC(=O)O)NC(=O)[C@H](CCC(N)=O)NC(=O)[C@H](Cc2c[nH]c3ccccc23)NC(=O)[C@H](C(C)C)NC1=O) [Compound C],300,
28,,"Ac-ICIWQDWGEHRCTEGE-NH2 (disulfide 2-12; SMILES CC[C@H](C)[C@H](NC(C)=O)C(=O)N[C@H]1CSSC[C@@H](C(=O)N[C@H](C(=O)N[C@@H](CCC(=O)O)C(=O)NCC(=O)N[C@@H](CCC(=O)O)C(N)=O)[C@@H](C)O)NC(=O)[C@H](CCCNC(=N)N)NC(=O)[C@H](Cc2c[nH]cn2)NC(=O)[C@H](CCC(=O)O)NC(=O)CNC(=O)[C@H](Cc2c[nH]c3ccccc23)NC(=O)[C@H](CC(=O)O)NC(=O)[C@H](CCC(N)=O)NC(=O)[C@H](Cc2c[nH]c3ccccc23)NC(=O)[C@H]([C@@H](C)CC)NC1=O, also called Comp No 24) [Compound 24]",90,< 100
,,Ac-ICVWQDWGAHSCT-NH2 (disulfide 2-12; SMILES CC[C@H](C)[C@H](NC(C)=O)C(=O)N[C@H]1CSSC[C@@H](C(=O)N[C@H](C(N)=O)[C@@H](C)O)NC(=O)[C@H](CO)NC(=O)[C@H](Cc2c[nH]cn2)NC(=O)[C@H](C)NC(=O)CNC(=O)[C@H](Cc2c[nH]c3ccccc23)NC(=O)[C@H](CC(=O)O)NC(=O)[C@H](CCC(N)=O)NC(=O)[C@H](Cc2c[nH]c3ccccc23)NC(=O)[C@H](C(C)C)NC1=O) [Compound E],> 1000,
,,Ac-ICIWQDWGAHSCT-NH2 (disulfide 2-12; SMILES CC[C@H](C)[C@H](NC(C)=O)C(=O)N[C@H]1CSSC[C@@H](C(=O)N[C@H](C(N)=O)[C@@H](C)O)NC(=O)[C@H](CO)NC(=O)[C@H](Cc2c[nH]cn2)NC(=O)[C@H](C)NC(=O)CNC(=O)[C@H](Cc2c[nH]c3ccccc23)NC(=O)[C@H](CC(=O)O)NC(=O)[C@H](CCC(N)=O)NC(=O)[C@H](Cc2c[nH]c3ccccc23)NC(=O)[C@H]([C@@H](C)CC)NC1=O) [Compound 19],140,< 250
,,Ac-EGSAICVWQDWGEHRC[Sar]E-NH2 (disulfide 6-16; SMILES CC[C@H](C)[C@H](NC(=O)[C@H](C)NC(=O)[C@H](CO)NC(=O)CNC(=O)[C@H](CCC(=O)O)NC(C)=O)C(=O)N[C@H]1CSSC[C@@H](C(=O)N(C)CC(=O)N[C@@H](CCC(=O)O)C(N)=O)NC(=O)[C@H](CCCNC(=N)N)NC(=O)[C@H](Cc2c[nH]cn2)NC(=O)[C@H](CCC(=O)O)NC(=O)CNC(=O)[C@H](Cc2c[nH]c3ccccc23)NC(=O)[C@H](CC(=O)O)NC(=O)[C@H](CCC(N)=O)NC(=O)[C@H](Cc2c[nH]c3ccccc23)NC(=O)[C@H](C(C)C)NC1=O) [Compound H],330,
37,,Ac-ICIWQDWGEHSCT-NH2 (disulfide 2-12; SMILES CC[C@H](C)[C@H](NC(C)=O)C(=O)N[C@H]1CSSC[C@@H](C(=O)N[C@H](C(N)=O)[C@@H](C)O)NC(=O)[C@H](CO)NC(=O)[C@H](Cc2c[nH]cn2)NC(=O)[C@H](CCC(=O)O)NC(=O)CNC(=O)[C@H](Cc2c[nH]c3ccccc23)NC(=O)[C@H](CC(=O)O)NC(=O)[C@H](CCC(N)=O)NC(=O)[C@H](Cc2c[nH]c3ccccc23)NC(=O)[C@H]([C@@H](C)CC)NC1=O) [Compound 20],59,< 100
,,Ac-ICVWQDWGSHRCT-NH2 (disulfide 2-12; SMILES CC[C@H](C)[C@H](NC(C)=O)C(=O)N[C@H]1CSSC[C@@H](C(=O)N[C@H](C(N)=O)[C@@H](C)O)NC(=O)[C@H](CCCNC(=N)N)NC(=O)[C@H](Cc2c[nH]cn2)NC(=O)[C@H](CO)NC(=O)CNC(=O)[C@H](Cc2c[nH]c3ccccc23)NC(=O)[C@H](CC(=O)O)NC(=O)[C@H](CCC(N)=O)NC(=O)[C@H](Cc2c[nH]c3ccccc23)NC(=O)[C@H](C(C)C)NC1=O) [Compound B],360,
,,Ac-ICVWQDWGEHRCTEGE-NH2 (disulfide 2-12; SMILES CC[C@H](C)[C@H](NC(C)=O)C(=O)N[C@H]1CSSC[C@@H](C(=O)N[C@H](C(=O)N[C@@H](CCC(=O)O)C(=O)NCC(=O)N[C@@H](CCC(=O)O)C(N)=O)[C@@H](C)O)NC(=O)[C@H](CCCNC(=N)N)NC(=O)[C@H](Cc2c[nH]cn2)NC(=O)[C@H](CCC(=O)O)NC(=O)CNC(=O)[C@H](Cc2c[nH]c3ccccc23)NC(=O)[C@H](CC(=O)O)NC(=O)[C@H](CCC(N)=O)NC(=O)[C@H](Cc2c[nH]c3ccccc23)NC(=O)[C@H](C(C)C)NC1=O) [Compound J],240,
,,Ac-ESSAICIWQDWGEHRCT-NH2 (disulfide 6-16; SMILES CC[C@H](C)[C@H](NC(=O)[C@H](C)NC(=O)[C@H](CO)NC(=O)[C@H](CO)NC(=O)[C@H](CCC(=O)O)NC(C)=O)C(=O)N[C@H]1CSSC[C@@H](C(=O)N[C@H](C(N)=O)[C@@H](C)O)NC(=O)[C@H](CCCNC(=N)N)NC(=O)[C@H](Cc2c[nH]cn2)NC(=O)[C@H](CCC(=O)O)NC(=O)CNC(=O)[C@H](Cc2c[nH]c3ccccc23)NC(=O)[C@H](CC(=O)O)NC(=O)[C@H](CCC(N)=O)NC(=O)[C@H](Cc2c[nH]c3ccccc23)NC(=O)[C@H]([C@@H](C)CC)NC1=O) [Compound 3],69,< 100
,,Ac-ICIWQDWGSHRCT-NH2 (disulfide 2-12; SMILES CC[C@H](C)[C@H](NC(C)=O)C(=O)N[C@H]1CSSC[C@@H](C(=O)N[C@H](C(N)=O)[C@@H](C)O)NC(=O)[C@H](CCCNC(=N)N)NC(=O)[C@H](Cc2c[nH]cn2)NC(=O)[C@H](CO)NC(=O)CNC(=O)[C@H](Cc2c[nH]c3ccccc23)NC(=O)[C@H](CC(=O)O)NC(=O)[C@H](CCC(N)=O)NC(=O)[C@H](Cc2c[nH]c3ccccc23)NC(=O)[C@H]([C@@H](C)CC)NC1=O) [Compound 6],140,< 250
44,,Ac-EGSAICIWQDWGEHRC[Sar]E-NH2 (disulfide 6-16; SMILES CC[C@H](C)[C@H](NC(=O)[C@H](C)NC(=O)[C@H](CO)NC(=O)CNC(=O)[C@H](CCC(=O)O)NC(C)=O)C(=O)N[C@H]1CSSC[C@@H](C(=O)N(C)CC(=O)N[C@@H](CCC(=O)O)C(N)=O)NC(=O)[C@H](CCCNC(=N)N)NC(=O)[C@H](Cc2c[nH]cn2)NC(=O)[C@H](CCC(=O)O)NC(=O)CNC(=O)[C@H](Cc2c[nH]c3ccccc23)NC(=O)[C@H](CC(=O)O)NC(=O)[C@H](CCC(N)=O)NC(=O)[C@H](Cc2c[nH]c3ccccc23)NC(=O)[C@H]([C@@H](C)CC)NC1=O) [Compound 28],88,< 100
,,Ac-ICVWQDWGEHSCT-NH2 (disulfide 2-12; SMILES CC[C@H](C)[C@H](NC(C)=O)C(=O)N[C@H]1CSSC[C@@H](C(=O)N[C@H](C(N)=O)[C@@H](C)O)NC(=O)[C@H](CO)NC(=O)[C@H](Cc2c[nH]cn2)NC(=O)[C@H](CCC(=O)O)NC(=O)CNC(=O)[C@H](Cc2c[nH]c3ccccc23)NC(=O)[C@H](CC(=O)O)NC(=O)[C@H](CCC(N)=O)NC(=O)[C@H](Cc2c[nH]c3ccccc23)NC(=O)[C@H](C(C)C)NC1=O) [Compound F],540,
0.12,0.12,H-[dY]ICI[Trp(1-Me)]QDW[Sar]AHRC[NMeI]-NH2 (disulfide 3-13; SMILES CC[C@H](C)[C@H](NC(=O)[C@H](N)Cc1ccc(O)cc1)C(=O)N[C@H]1CSSC[C@@H](C(=O)N(C)[C@H](C(N)=O)[C@@H](C)CC)NC(=O)[C@H](CCCNC(=N)N)NC(=O)[C@H](Cc2c[nH]cn2)NC(=O)[C@H](C)NC(=O)CN(C)C(=O)[C@H](Cc2c[nH]c3ccccc23)NC(=O)[C@H](CC(=O)O)NC(=O)[C@H](CCC(N)=O)NC(=O)[C@H](Cc2cn(C)c3ccccc23)NC(=O)[C@H]([C@@H](C)CC)NC1=O) [Compound 48],,< 100
